The target in the assay is Human FGF2 (manufactured by Peprotech Inc.) (human) (UniProt P09038). Briefly: cell-based or functional assay.
Chain of Human FGF2 (manufactured by Peprotech Inc.) (human) (P09038 135-288 limits assumed): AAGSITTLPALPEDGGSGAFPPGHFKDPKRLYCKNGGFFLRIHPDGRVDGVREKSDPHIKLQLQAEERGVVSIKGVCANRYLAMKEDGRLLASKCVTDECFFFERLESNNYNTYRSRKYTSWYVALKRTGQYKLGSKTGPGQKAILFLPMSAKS

Consider “anti-FGF2 antibody Anti-FGF, basic (Ab-3) Mouse mAb (3H3) (manufactured by Calbiochem)”, for which the inhibitory rate (%) of FGF2-dependent growth of HUVEC cells; 3H3 (1 nM) + FGF2 (500 pM) is 8.5%, the inhibitory rate (%) of FGF2-dependent growth of HUVEC cells; 3H3 (5 nM) + FGF2 (500 pM) amounted to 30% and the inhibitory rate (%) of FGF2-dependent growth of HUVEC cells; 3H3 (25 nM) + FGF2 (500 pM) turned out to be 100%.

These data come from patent US20170157165A1.
